Data taken from patent US20080249606.

Key:
[1] = target: BSA exposed to Ellagic acid, P02769
[2] = target: BSA exposed to kaolin, P02769
[3] = target: BSA incubated overnight with dextran sulphate 500,000 Da (DXS500k), P02769
[4] = target: Bovine serum albumin (BSA), P02769
[5] = target: Gelofusin (Braun Melsungen AG)
[6] = target: Gelofusin mixed with kaolin
[7] = target: Gelofusin mixed with lipopolysaccharide (LPS)
[8] = target: T1, endostatin exposed to Ellagic acid, P39060
T1 chain: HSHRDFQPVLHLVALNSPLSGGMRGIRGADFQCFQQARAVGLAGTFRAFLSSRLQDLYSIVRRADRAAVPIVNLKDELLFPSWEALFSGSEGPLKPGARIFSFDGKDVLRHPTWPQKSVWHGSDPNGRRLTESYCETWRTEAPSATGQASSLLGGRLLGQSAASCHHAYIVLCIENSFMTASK

[9] = target: endostatin exposed to kaolin, P39060
[10] = target: endostatin incubated overnight with DXS500k, P39060
[11] = target: endostatin, a recombinantly produced fragment of human collagen XVIII (EntreMed), P39060
[12] = target: glycated haemoglobin (Hb-AGE), P69905
Sequence of glycated haemoglobin (Hb-AGE), P69905 (P69905 2-142, chain 1 of 2): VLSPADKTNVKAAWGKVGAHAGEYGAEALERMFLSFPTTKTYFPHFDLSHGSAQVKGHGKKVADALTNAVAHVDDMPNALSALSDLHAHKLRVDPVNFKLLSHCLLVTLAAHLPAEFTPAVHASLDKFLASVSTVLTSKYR
Sequence of glycated haemoglobin (Hb-AGE), P69905 (chain, as listed by the source, chain 2 of 2): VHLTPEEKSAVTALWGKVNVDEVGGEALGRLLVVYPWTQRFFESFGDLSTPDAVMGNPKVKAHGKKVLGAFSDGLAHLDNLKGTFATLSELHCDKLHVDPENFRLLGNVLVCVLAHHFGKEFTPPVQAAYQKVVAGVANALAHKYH

[13] = target: lysozyme exposed to Microlance-3 injection needles, P00698
Sequence of lysozyme exposed to Microlance-3 injection needles, P00698 (P00698 19-147): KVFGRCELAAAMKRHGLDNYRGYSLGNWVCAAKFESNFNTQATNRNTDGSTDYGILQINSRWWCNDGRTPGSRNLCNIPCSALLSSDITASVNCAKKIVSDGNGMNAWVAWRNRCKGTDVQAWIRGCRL

Sequence of BSA incubated overnight with dextran sulphate 500,000 Da (DXS500k), P02769 (P02769 25-607): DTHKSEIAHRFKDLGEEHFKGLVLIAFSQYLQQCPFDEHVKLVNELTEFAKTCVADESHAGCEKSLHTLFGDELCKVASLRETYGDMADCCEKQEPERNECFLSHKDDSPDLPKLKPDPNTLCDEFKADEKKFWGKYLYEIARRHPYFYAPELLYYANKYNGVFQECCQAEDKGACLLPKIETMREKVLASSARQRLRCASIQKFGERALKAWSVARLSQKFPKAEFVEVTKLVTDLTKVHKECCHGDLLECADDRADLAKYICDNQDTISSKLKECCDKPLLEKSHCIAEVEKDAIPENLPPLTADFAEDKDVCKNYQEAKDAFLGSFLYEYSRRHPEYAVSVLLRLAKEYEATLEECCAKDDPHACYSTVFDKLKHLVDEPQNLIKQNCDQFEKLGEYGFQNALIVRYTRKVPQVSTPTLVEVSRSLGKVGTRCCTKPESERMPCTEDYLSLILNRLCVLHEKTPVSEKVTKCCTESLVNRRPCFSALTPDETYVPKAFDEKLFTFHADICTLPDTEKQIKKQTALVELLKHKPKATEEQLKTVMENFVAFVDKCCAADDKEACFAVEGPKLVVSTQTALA
Sequence of Bovine serum albumin (BSA), P02769 (P02769 25-607): as above
Sequence of BSA exposed to kaolin, P02769 (P02769 25-607): as above
Sequence of BSA exposed to Ellagic acid, P02769 (P02769 25-607): as above

B1: factor XII (FXII, Calbiochem 233490) (protein)
chain: IPPWEAPKEHKYKAEEHTVVLTVTGEPCHFPFQYHRQLYHKCTHKGRPGPQPWCATTPNFDQDQRWGYCLEPKKVKDHCSKHSPCQKGGTCVNMPSGPHCLCPQHLTGNHCQKEKCFEPQLLRFFHKNEIWYRTEQAAVARCQCKGPDAHCQRLASQACRTNPCLHGGRCLEVEGHRLCHCPVGYTGAFCDVDTKASCYDGRGLSYRGLARTTLSGAPCQPWASEATYRNVTAEQARNWGLGGHAFCRNPDNDIRPWCFVLNRDRLSWEYCDLAQCQTPTQAAPPTPVSPRLHVPLMPAQPAPPKPQPTTRTPPQSQTPGALPAKREQPPSLTRNGPLSCGQRLRKSLSSMTRVVGGLVALRGAHPYIAALYWGHSFCAGSLIAPCWVLTAAHCLQDRPAPEDLTVVLGQERRNHSCEPCQTLAVRSYRLHEAFSPVSYQHDLALLRLQEDADGSCALLSPYVQPVCLPSGAARPSETTLCQVAGWGHQFEGAEEYASFLQEAQVPFLSLERCSAPDVHGSSILPGMLCAGFLEGGTDACQGDSGGPLVCEDQAAERRLTLQGIISWGSGCGDRNKPGVYTDVAYYLAWIREHTVS
chromogenic factor XII/prekallikrein activation assay [1]: exposure of the proteins to the polyphenol surface induces increased capacity to activate factor XII/prekallikrein
FXII activation (conversion of Chromozym-PK by kallikrein) [2]: combinations of surface and protein cofactor results in FXII and subsequent prekallikrein activity
FXII activation (conversion of Chromozym-PK by kallikrein) [3]: combinations of surface and protein cofactor results in FXII and subsequent prekallikrein activity
FXII activation (conversion of Chromozym-PK by kallikrein) [4]: Neither BSA or endostatin alone, nor kaolin or DXS500k alone are efficient activators of FXII
chromogenic factor XII/prekallikrein activation assay with active enzyme kallikrein read-out [5]: Gelofusin alone does not stimulate factor XII/prekalikrein activation
chromogenic factor XII/prekallikrein activation assay with active enzyme kallikrein read-out [6]: enhanced activity is seen when Gelofusin is mixed with kaolin or LPS
chromogenic factor XII/prekallikrein activation assay with active enzyme kallikrein read-out [7]: enhanced activity is seen when Gelofusin is mixed with kaolin or LPS
chromogenic factor XII/prekallikrein activation assay [8]: exposure of the proteins to the polyphenol surface induces increased capacity to activate factor XII/prekallikrein
FXII activation (conversion of Chromozym-PK by kallikrein) [9]: combinations of surface and protein cofactor results in FXII and subsequent prekallikrein activity
FXII activation (conversion of Chromozym-PK by kallikrein) [10]: combinations of surface and protein cofactor results in FXII and subsequent prekallikrein activity
FXII activation (conversion of Chromozym-PK by kallikrein) [11]: Neither BSA or endostatin alone, nor kaolin or DXS500k alone are efficient activators of FXII
FXII activation [12]: Presence of cross-β structure conformation in Hb-AGE was conformed by tPA binding, tPA activation, FXII activation

B2: tissue-type plasminogen activator (tPA, Actilyse, Boehringer-Ingelheim) (protein)
chain: SYQVICRDEKTQMIYQQHQSWLRPVLRSNRVEYCWCNSGRAQCHSVPVKSCSEPRCFNGGTCQQALYFSDFVCQCPEGFAGKCCEIDTRATCYEDQGISYRGTWSTAESGAECTNWNSSALAQKPYSGRRPDAIRLGLGNHNYCRNPDRDSKPWCYVFKAGKYSSEFCSTPACSEGNSDCYFGNGSAYRGTHSLTESGASCLPWNSMILIGKVYTAQNPSAQALGLGKHNYCRNPDGDAKPWCHVLKNRRLTWEYCDVPSCSTCGLRQYSQPQFRIKGGLFADIASHPWQAAIFAKHRRSPGERFLCGGILISSCWILSAAHCFQERFPPHHLTVILGRTYRVVPGEEEQKFEVEKYIVHKEFDDDTYDNDIALLQLKSDSSRCAQESSVVRTVCLPPADLQLPDWTECELSGYGKHEALSPFYSERLKEAHVRLYPSSRCTSQHLLNRTVTDNMLCAGDTRSGGPQANLHDACQGDSGGPLVCLNDGRMTLVGIISWGLGCGQKDVPGVYTKVTNYLDWIRDNMRP
Plg-activation assay (plasmin substrate S-2251) [13]: When the plasma protein lysozyme is exposed to the stainless steel of a Microlance-3 injection needle, tPA activating properties are induced
